Measurements taken from US20260218138A1, “ENGINEERED ACYLTRANSFERASES HAVING ALTERED SUBSTRATE SPECIFICITY” (KEZBIOSOLUTIONS GMBH, priority 2022, published 2026).
Substitutions are numbered along the chain they refer to. Names may count otherwise.

B1: (WT): wild type murine FAS malonyl-acetyl-transferase (MAT), no mutation (protein, listed as Mus musculus)
chain: NKRPLWFICSGMGTQWRGMGLSLMRLDSFRESILRSDEAVKPLGVKVSDLLLSTDERTFDDIVHAFVSLTAIQIALIDLLTSVGLKPDGIIGHSLGEVACGYADGCLSQREAVLAAYWRGQCIKDAHLPPGSMAAVGLSWEECKQRCPAGVVPACHNSEDTVTISGPQAAVNEFVEQLKQEGVFAKEVRTGGLAFHSYFMEGIAPTLLQALKKVIREPRPRSARWLSTSIPEAQWQSSLARTSSAEYNVNNLVSPVLFQEALWHIPEHAVVLEIAPHALLQAVLKRGVKSSCTIIPLMKRDHKDNLEFFLTNLGKVHLT
B2: Mutant A07: engineered murine acyltransferase, mutation K186D (protein)
chain: B1 chain with K186D
B3: Mutant A02: engineered murine acyltransferase, mutation T161Y (protein)
chain: B1 chain with T161Y
B4: Mutant A04: engineered murine acyltransferase, mutations T161A F184A K186A R286A (protein)
chain: B1 chain with T161A, F184A, K186A, R286A
B5: Mutant A05: engineered murine acyltransferase, mutation K186E (protein)
chain: B1 chain with K186E
B6: Mutant A11: engineered murine acyltransferase, mutation R300E (protein)
chain: B1 chain with R300E
B7: Mutant A14: engineered murine acyltransferase, mutations K186E R300D (protein)
chain: B1 chain with K186E, R300D
B8: Mutant A13: engineered murine acyltransferase, mutations K186D R300E (protein)
chain: B1 chain with K186D, R300E
B9: Mutant A08: engineered murine acyltransferase, mutation K285D (protein)
chain: B1 chain with K285D
B10: Mutant A03: engineered murine acyltransferase, mutations T161A F184A R286A (protein)
chain: B1 chain with T161A, F184A, R286A
B11: Mutant A15: engineered murine acyltransferase, mutations K186E R300E (protein)
chain: B1 chain with K186E, R300E
B12: Mutant A12: engineered murine acyltransferase, mutations K186D R300D (protein)
chain: B1 chain with K186D, R300D
B13: Mutant A10: engineered murine acyltransferase, mutation R300D (protein)
chain: B1 chain with R300D
B14: Mutant A01: engineered murine acyltransferase, mutation T161A (protein)
chain: B1 chain with T161A
B15: Mutant A48: engineered murine acyltransferase, mutations T161A F184E R286D K186D D160R (protein)
chain: B1 chain with D160R, T161A, F184E, K186D, R286D
B16: Mutant A35: engineered murine acyltransferase, mutations T161L F184L R286L K186D R300D (protein)
chain: B1 chain with T161L, F184L, K186D, R286L, R300D

assay: Enzyme-coupled assay: transfer of acyl-moieties from MMal-CoA to the ACP; type: biochemical; conditions: substrate MMal-CoA, acceptor ACP from murine FAS
Procedure: (§1) An enzyme-coupled assay was performed to analyze the transfer of acyl-moieties from CoA to the ACP. Four solutions were prepared as 4× concentrated stocks in the assay buffer. Solution 1 contained the acyltransferase at the concentration range of 0.01 μM-10 μM, depending on the transfer kinetics to achieve good signal to noise ratios. Solution 2 contained the enzyme-coupled system including 8 mM α-ketoglutaric acid, 1.6 mM NAD+, 1.6 mM TPP and 60 mU/100 μL αKGDH. Solution 3 contained the methylmalonyl (MMal)-CoA at concentrations between 0.1 μM and 1,000 μM and solution 4 contained the ACP from murine FAS as a standalone protein at 240 μM. 5 μL of Solutions 1-3 were pipetted into a 384-well Small Volume HiBase Microplates (Greiner Bio-one) and mixed manually. The reactions were started by adding solution 4 with the dispenser system of the microplate reader (ClarioStar, BMG labtech). The reaction progress was recorded using the following settings: 348-20 nm; emission: 476-20 nm; gain: 1500; focal height: 11.9 mm; flashes: 17; orbital averaging: off.

Row | Molecule | Km | kcat
1 | B1 | 0.53 µM | 1.297 s⁻¹
2 | B2 | 18.6 µM | 0.093 s⁻¹
3 | B3 | 38.8 µM | 0.428 s⁻¹
4 | B4 | 7.24 µM | 0.013 s⁻¹
5 | B5 | 14.2 µM | 0.101 s⁻¹
6 | B6 | 3.33 µM | 0.834 s⁻¹
7 | B7 | 218 µM | 0.051 s⁻¹
8 | B8 | 686 µM | 0.190 s⁻¹
9 | B9 | 0.11 µM | 0.133 s⁻¹
10 | B10 | 3.41 µM | 0.021 s⁻¹
11 | B11 | 58.4 µM | 0.030 s⁻¹
12 | B12 | 66.2 µM | 0.019 s⁻¹
13 | B13 | 5.06 µM | 0.582 s⁻¹
14 | B14 | 1.47 µM | 0.051 s⁻¹

assay: Screen: transfer of malonyl-moieties from Mal-CoA to N-(2-mercaptoethyl)-hexanamide (enzyme-coupled assay); type: biochemical, murine; conditions: fixed substrate and acceptor concentrations; FIG. 4
Procedure: Specific transfers from Mal-CoA to N-(2-mercaptoethyl)-hexanamide were analyzed at fixed substrate and acceptor concentrations. […] Shown error bares reflect standard deviations from triplicates.
Further engineered mutants were expressed, purified and analyzed, building up on the previous studies. A screen for fifty different exemplary mutants was performed analyzing the transfer of malonyl-moieties from CoA to N-(2-mercaptoethyl)-hexanamide. Four solutions were prepared as 4× concentrated stocks in the assay buffer. Solution 1 contained the acyltransferases at the concentration range of 0.01 μM-10 μM and were arranged in four groups depending on their individual turnover rates to achieve good signal to noise ratios. Solution 2 contained the enzyme-coupled system including 8 mM α-ketoglutaric acid, 1.6 mM NAD+, 1.6 mM TPP and 60 mU/100 μL αKGDH. Solution 3 contained a fixed concentration of malonyl (Mal)-CoA at 200 μM and solution 4 contained the acceptor N-(2-mercaptoethyl)-hexanamide at 200 μM. 5 μL of Solutions 1-3 were pipetted into a 384-well Small Volume HiBase Microplates (Greiner Bio-one) and mixed manually. The reactions were started by adding 5 μL of solution 4 with an automatic multichannel pipette (ClipTip). The reaction progress was recorded using the following settings: 348-20 nm; emission: 476-20 nm; gain: 1700; focal height: 12.1 mm; flashes: 10; orbital averaging: off. […]

Row | Molecule | turnover rate, transfer from Mal-CoA to N-(2-mercaptoethyl)-hexanamide
15 | B15 | did not give a detectable signal

assay: In-depth kinetics: enzyme-coupled assay, malonyl transfer from Mal-CoA to ACP; type: biochemical, murine; conditions: substrate A (Mal-CoA), acceptor ACP fixed at 85 μM, apparent parameters
Procedure: (§2) Y-axes show turnover in s^−1 and x-axes show substrate concentration in μM. Apparent kinetic parameters at a fixed acceptor concentration of ACP of 85 μM were determined by fitting the data points with the Michaelis-Menten function. Shown error bares reflect standard deviations from triplicates.
as §1
(§3) In-depth kinetic analysis results allowing a comparison of enzyme kinetic parameters for the transfer of malonyl-moieties from either Mal-CoA or 3-Oxo-3-[[2-[(1-oxohexyl)amino]ethyl]thio]-propanoic acid to the ACP are shown for a representative mutant (A35) herein. Enzyme kinetics were determined with the established enzyme-coupled assay for Mal-CoA kinetics and a variation of the new thiol quantifying assay using ThioGlo.
Enzyme-coupled assay was performed as described in Example 3 with 4× concentrated stocks. The enzyme concentration of A35 in Solution 1 was 4.2 μM, the substrate concentrations of Mal-CoA in Solutions 3 were between 8-400 μM and the acceptor concentration of ACP in Solution 4 was 340 μM.

Row | Molecule | Km | kcat
16 | B16 | 25 µM | 0.01 s⁻¹

same assay, conditions: substrate A (Mal-CoA), acceptor ACP; kcat/Km relative to substrate A

Row | Factor | Molecule
17 | 1 | B16

assay: In-depth kinetics: thiol quantification assay (ThioGlo), malonyl transfer from non-CoA substrate to ACP; type: biochemical, murine; conditions: substrate B (3-Oxo-3-[[2-[(1-oxohexyl)amino]ethyl]thio]-propanoic acid), acceptor ACP fixed at 85 μM, apparent parameters
Procedure: as §2
To verify the re-engineered mutant activity, having a substrate specificity altered from natural CoA substrates to non-CoA substrates, an alternative method to quantify specific turnover rates for non-CoA substrates was established. Such non-CoA substrates are not detectable by the enzyme-coupled assay. We used a thiol-sensitive fluorophore (ThioGlo4; Yi et al. 2009) to quantify the released free thiol groups from the substrate 3-Oxo-3-[[2-[(1-oxohexyl)amino]ethyl]thio]-propanoic acid after the enzyme-specific transfer of the malonyl moiety to a non-thiol acceptor. Briefly, three solutions were prepared in either a twofold concentration or as 4× concentrated stocks in the assay buffer. […] Free thiols were detected by adding 10 μL of 120 μM ThioGlo in the buffer 250 mM potassium phosphate, 1 mM EDTA and 10% glycerol, mixing and fluorescence detection at the microplate reader (ClarioStar, BMG labtech) using the following settings: 400-20 nm; emission: 465-20 nm; gain: 700; focal height: 12.5 mm; flashes: 20; orbital averaging: off. […]
as §3
A variation of the thiol quantification assay in Example 5 was established to be able to separate the liberated thiol groups from 3-Oxo-3-[[2-[(1-oxohexyl)amino]ethyl]thio]-propanoic acid after acyl-transfer from the thiol groups of the acceptor ACP. […]

Row | Molecule | Km | kcat
18 | B16 | 30 µM | 5.75 s⁻¹

same assay, conditions: substrate B (non-CoA substrate), acceptor ACP; kcat/Km relative to substrate A (Mal-CoA)

Row | Molecule | Factor
19 | B16 | 467

assay: not given; conditions: Comparative data from Rittner et al. 2018; cited from earlier work

Row | Molecule | Km | kcat
20 | B1 | 0.62 µM | 4.000 s⁻¹
